Measurements as given in the DeepSol protein solubility set.

Assay: soluble on expression in E. coli; label from the status in PepcDB or PDB records

Row | Sequence | soluble on expression in E. coli
1 | GMSLPHLSSGEVASVLPLGKQLTQTPSAALFKEHRLEVMRMVLPAGKQVGSHSVAGPSTIQCLEGEVEIGVDGAQRRLHQGDLLYLGAGAAHDVNAITNTSLLVTVVLVDRGGS | soluble
2 | MPTKLSNKYHDEIEQNGFTVVRNFLSPQEIEKYTKASEALVQYARDGNWPHVRTRGKQFPPWPKNFSPDIWGVSGLLHPDLGELSKPFHDLYSDEKLLNVVCDILLIEKTDLSMELLNMLINPLTDFELDWHRDTIKPEVTPEEEAEDLLKFPYAGAQFNLALTEDDCLIAIPGSHNRVRTTEEREKTIDPNRRKEFITGEIRVQLQPGDLVFYNNNILHRAAYSSKNKRLTLHGSYGNVNQGKSRAKGILQHGVAEWLPRLETKNTNLKMLQEKLLNLAKEFEGVELGYALDG | soluble
3 | MELFTEAWAQAYCRKLNESEAYRKAASTWEGSLALAVRPDPKAGFPKGVAVVLDLWHGACRGAKAVEGEAEADFVIEADLATWQEVLEGRLEPLSALMRGLLELKKGTIAALAPYAQAAQELVKVAREVA | soluble
4 | MFRRIPLGRFLTRKIHNQTNGLIVPTTNVQKQQKRQILFKMGNETPARVVGYYVVFPVIPEETVENNCFMYNIAKNEDWPKLATAEPRELYEGTVRMLMDYGATVMEHMEHLATLPAEERKFENVVEPLLTEEYEVNFAFQTLVLKMLTDWPDCNRKLFDADLHHIKIMCARDQMEKLTNKDFQDAIKQLYEAKDGLSEWQSRLLEWYLLEIKASGLDKHDDKTRKVLGSWSKFVDEYRSKYITGVMSTNDQQTFVVTDQKVIKDAPPHVLQKLAVDEQNWESGPWRGRMTPHTIYPFMQYCGDRQLRATAWEKWTSKAGFDHDFYNNSINIEELRHNNEGLAKTLGYSSVAEHRLANKMAASPETVRGFINALQRRIRPVVIDRMESWSAWAGRCELITGELQAYDMPYVCRKEAEHHYEFFFQLKSSNFSFFRVNPLDLMNHFPFWPTFQNIMGVIGHIFNLEFKDITDKGLEKAHADVRIYSVGDKFSGQHYGRLYIDPYDRQNKRGGWNVMLARPESKERGLDKIVYFIGSAIAPTSNGPSLLHHQQLQQLLFHFGRSVQLLLSQSPYRDISIPWSPFYASDWDAADMFPTFLQMFVTKPNLLATISSPHQITKQSLTEEHANSVALTISRASLWETYRTLFWSDFDLSIYEMEDRKQKFWLDMYKQMYEEYFPFKRAKNDYQPCSFTPIFALQPHMSMYYRKLWAEMLALDIHETFDEEDNEVQTGERLKTTILNRGSGDVAKELFKRFQGRNPSVGAICDHYAPPMAIQDEMEMSENQRR | not soluble
5 | MSLMASAVAEENAERSKEGFIEGSEVNLLLRNFYFNRDFRKGQSSPAGGGYTEEWVQGFMANFSSGFTQGTLGVGIDAFAQLGVRLDSGGGRSGAGGSVDLLPYDDQGRPQDDYSRAGGAVKLRWYGTVLRVGDVFPETPVIQYGNSRLFPSSFRGFTLVNDSLAKGLTLQAGKLNSMTQPNSTSGSDDFYSFYTGRRIDSPWVAYAGGDYQATEHWSVSLYGSRQKDAWDQYYAGTSFNYPLDDKLSLLGGANYYKVKDQGRQVMGELDNDIWSVRGGFAYGPHQVLLSYQRNNGDDDFDYLRQTDSIYLDNSIQYSDFNSPKERSLMLRYDLDMAAFGVPGLSFMTRYGKGWDADYSNANSVYMRTDANGNPLTNQGRWERDVEVKYVVQGGAAKDLAFRVRQATVRSDSFESDLDEVRLIVEYPLQVLEGHHHHHH | not soluble
6 | MHSKMDCVSRSPLFSPLAPAVKAKLITVTHHRKFYQKGQLIRQPLDHQEGMLILDEGTAKIYALAANGKEKIIELLRSGDVVGQHWLFAPHENQGFIQATSDAWVCSIQYDDFQRLLGESASLSLAMINNFGNQLIEAEKNQLRRDLLDAKARLMAYLRDCAVESGQIEFELPLKKKELANILGITPETLSRQFKQLAAEGQIIVNKRQITIC | not soluble
7 | MSLSMEFDAVIIGGGVSGCATFYTLSEYSSLKRVAIVEKCSKLAQISSSAKANSQTIHDGSIETNYTPEKAKKVRLSAYKTRQYALNKGLQNEVIFETQKMAIGVGDEECEFMKKRYESFKEIFVGLEEFDKQKIKELEPNVILGANGIDRHENIIGHGYRKDWSTMNFAKLSENFVEEALKLKPNNQVFLNFKVKKIEKRNDTYAVISEDAEEVYAKFVLVNAGSYALPLAQSMGYGLDLGCLPVAGSFYFVPDLLRGKVYTVQNPKLPFAAVHGDPDAVIKGKTRIGPTALTMPKLERNKCWLKGISLELLKMDLNKDVFKIAFDLMSDKEIRNYVFKNMVFELPIIGKRKFLKDAQKIIPSLSLEDLEYAHGFGEVRPQVLDRTKRKLELGEKKICEGHHHHHH | not soluble
8 | MGSDKIHHHHHHACSSDDDNTVNDETTPPEEEAVVTAPDVVGTYWGNLDISMLPDGSDQEVVIADGLPKFITFSQVSDTEVKMELKEFELFINGNILKFGDIVIDKCAVKKETDASTFTGQQDLTFQGDAAALGTCATSIEGTVQSGNATMNIQVKVPALKQTVKVAFSGVKQVEESGKD | not soluble
9 | MGKKRKITDEKDAQHVPAEKREKVENWLKKSTEKPTSSQSDAEKKKKRPWRNKVRKLAAKKAAADKKSENPEEPPLILEPKSSSDENTKKKRKRGPKKKKFKPEVAGKAAETENDDVAAAPEEADPIAEAKKRLDAGRFRFLNEKLYTCTGSEAFDFFKEDPTAFDLYHKGFADQVKKWPNHPLREIIRWLQSKPDQQSVFDLGCGEAKIAEAVGEKHKIRSFDLVAVNDRVESCDMSKLPAEDSSADIVIYCLSLMGTNLYDFIREARRVLKIGGILKIAEVTSRFVSIKQFCEAITKMGFEQSHRRELTDYFMMMEFKKVEKVEQKRPYGLKLKPCLYKKR | soluble
10 | MGSDKIHHHHHHMKDVARDIYLSRDKIDEIKRKRFRSTLKYVYDNSPFYRRLFKESGVDIDSIKEPADIAKLPFTTKQNLRESYPLKMACVEKEKIVRIQMSGGTTGQPVIIPYTRHDVEQWKEMLLRDFYLAGITSKDVIQITPAFGLWNGGFGFHFAADAIDAFVIPIGAGNTRNQVRFMVDFGTTVLCATASYPLRIAEVAEEMGYEPAELPVQKMLLGAEPWSEEMRRQIEKTFNCKAFDIPGLTEMGGVGTVGFECPSRNGLHIWEDNYIVEIVDPETGEVLEDGEEGEIVYTSLNREAMPLIRYRSGEVSAVVSREKCECGIEHMTIKRIRGRTDDMVIYKGVKFYPSDVEQILASYGVRHYRIEVGEGIRVIFEGENGLARKVIKDIKEFLGFSPRIEVVQPGSLERFEGKAKRLFRG | not soluble
11 | MGSDKIHHHHHHMVTNVRIGAMQAYMVAEPWNTRAITGNENIGFTFAQGKEVWLGHPDRLLGVMESFIDKYPKTYRSLVKAMIEACQYCSKAENRQEVAELLTERSFTGARPKKKGAPIAKFTSPGILGNYNYGGFDGKDRTIKAADTTIFFDIPDNLPKQPGEHSTFLWRSRSIWLMTQAARWGQIKEFPKNADKLAQQGWRTDLYREIASEMGIQCPKDDYKVEPPEVFIDKKGFDPSDPVGYLNSFAIRANAPTNFFMS | not soluble
12 | MGSDKIHHHHHHMDINADFSERVMVQSADLDWVASPMPGVDRRMLDRIGGEVARATSIVRYAPGSNFSAHTHTGGEEFVVLDGVFQDEHGDYPAGTYVRNPPTTSHTPGSDEGCTIFVKLWQFDMDDRTQFRRDMAAGGDRSVLHEDAFEIVTYHRLAPGAALEDPADGGAELLVLAGSLTEGGDTLITGGWLRLPESSTMHAVAGSEGATVWMKTGHLPHAKPPAVGRTR | not soluble
13 | MESKLNLDFNLVEKARAKAKAIAIDTQEFIEKHTTVTVERAVCRLLGIDGVDTDEVPLPNIVVDHIKENNGLNLGAAMYIANAVLNTGKTPQEIAQAISAGELDLTKLPMKDLFEVKTKALSMAKETVEKIKNNRSIRESRFEEYGDKSGPLLYVIVATGNIYEDITQAVAAAKQGADVIAVIRTTGQSLLDYVPYGATTEGFGGTYATQENFRLMREALDKVGAEVGKYIRLCNYCSGLCMPEIAAMGAIERLDVMLNDALYGILFRDINMQRTMIDQNFSRIINGFAGVIINTGEDNYLTTADAFEEAHTVLASQFINEQFALLAGLPEEQMGLGHAFEMDPELKNGFLYELSQAQMAREIFPKAPLKYMPPTKFMTGNIFKGHIQDALFNMVTIMTNQRIHLLGMLTEALHTPFMSDRALSIENAQYIFNNMESISEEIQFKEDGLIQKRAGFVLEKANELLEEIEQLGLFDTLEKGIFGGVKRPKDGGKGLNGVVSKDENYYNPFVELMLNK | soluble
14 | MGSDKIHHHHHHMIYYGTMFDHKVRFSIVRMREVVEEARNRHALSYLATVVLGRALIGAALVTPWLAEKERWTLDIEGNGPIRRVVAQSTSEFTVRGYVANPKVELPLNEKGKFDVAGAIGQGVLRVVRDLGLKTPFVSQVPLVSGEIAEDLAYYFAVSEQIPSAFSIGVLVDSDGVKIAGGFAVQIIDRTLEQEKVEMIEKNIKNLPSISKLFQEAEPLDVLERIFGEKVGFVETAEIKYKCDCNREKAKNALLVLDKKELEDMRKEGKGEVVCKWCNTRYVFSEEELEELLKFKVDDSGS | soluble
15 | SKTENEEDVKPPESCHAMQLLFKSLEASERAKVEEELKKTKENEFTQRNEHHALRDITHGKVNNYSFGTRQARKLFPHYHPPTWLGNLYLPLRGMPHTGPGCYAAATDWNGLAYNLSKVPTSTKGYAIGARTAVRFKPISKDVTPYPGMYQKVDTLSEKHKKSFAPFNILMPRFRSAAKGDSYPGPGTYNPEMKSVPKVTWPMKFGSPDWSQVPCLEKRTLKAELSADKDFRKHRSRVAYFSLYYQ | soluble
16 | MATNFLVGEKIWFHKFKYGDAERRFYEQMNGPVAGASLQEASMILHDIARARENIPKSLAGSLGPGASSGPSGDHSELVVRIASLEVDNQRDLAERAGEELARPLGHSPADPAHVSHAPSGAPGQEASHTSRG | soluble
17 | MSKKVAIVGAGPGGLATAIRLAGLGYQVEIFEAAERVGGRMRGFEVDSYAFDTGPTILQLPHLYKELFEEAGLNFADYVQLKRLEPYTRLKFWDGTQLDITSDLQSFKTQLATLRSDLPLAFDRWYSEHIRKYELGYKPYLAGPARSIFGYLRPDELMKFLSFRPWENLYQHFWRFFQDERLVYALSYPSKYLGMHPTVASSVFSLIPFLEFSQGVWHPVGGFRALAQGLANAAQDLGVKIHLHSPVHQIWIEQGQVRGLELADASRHQFDTVVINADFAYAVRHLLPTSARGRYTDNKLGQMQFSCSTFMLYLGINRRYEDLPHHQIYLSDNIRRLERPWVDDSALDETDPPFYVCNPTIIDPSNAPAGHSTLFVLVPIPNTSYAVDWDIKQKSYTDFILKRLHLLGYHNIEQHIVTQSCYTAQSWLDDYRVHLGAVFNLSHNLTQLGPFRPPIRSENIAGLYWIGGAVHPGSGLLTILEASRSAAGFIHQDFASTGSLEHHHHHH | not soluble
18 | MHPRETIRETFVALIKAAKTVAGDNVFNMRDFNLFIETMPAINISTQSETIEDGHDFGLRRRVLTVDVECYATCEDGARFVDQLAWEVEEIFYANPNLNNTVETCRLQNIAFAFGDNGSLALHGAILTFDVTHITNIPCPDEGKATVGVVEPLVGFKPETGMGNKDKYHKIEGDHVRATR | not soluble
19 | MGSDKIHHHHHHMSDSHQGSCLCGAVRFRTKGALRGVVYCHCSQCRKQSGHFYAATNVADADIVIEGTESITWYEASAFAGRGFCKTCGSVLFWKPRTQDYISVMAGAFDKPTGLKGDCHIFVGDKGDYYSIDDGLPQFEKSTPSIAVAE | not soluble
20 | MGKSIPVKTGLRGASAAVAGFIKSSKPIRPISSMDSSDKDSSSTTTTSETTRRFVPLSSVVSDCAKRWFKDTLEEAKAGNITMQVLLGQMYYSGYGVPKDARKVSSLFPPFQSLLFQVLGYNASDSDSESD | not soluble
